Target: T1, Protein A (UniProt P38507 37-327)
T1 construct: Commercial chromatography resin; also called rProtein A Sepharose Fast Flow (GE Healthcare)
Assay: Protein A column chromatography, stepwise pH elution; eluted fractions analysed by cation exchange chromatography (peak area %)

B1: J142-z72/L180-k (antibody, human IgG4 S228P, kappa)
heavy: QVQLVQSGSELKKPGASVKVSCKASGYTFTDNNMDWVRQAPGQGLEWMGDINTRSGGSIYNEEFQDRVTMTIDKSTGTAYMELSSLRSEDTAVYYCARRRSYGYYHDEWGEGTLVTVSSASTKGPSVFPLAPCSRSTSESTAALGCLVKDYFPEPVTVSWNSGALTSGVHTFPAVLQSSGLYSLSSVVTVPSSSLGTKTYTCNVDHKPSNTKVDKRVESKYGPPCPPCPAPEFLGGPSVFLFPPKPKDTLMISRTPEVTCVVVDVSQEDPEVQFNWYVDGVEVHNAKTKPREEQFNSTYRVVSVLTVLHQDWLNGKEYKCKVSNKGLPSSIEKTISKAKGQPREPQVYTLPPSQEEMTKNQVSLTCLVKGFYPSDIAVEWESNGQPENNYKTTPPVLDSDGSFFLYSRLTVDKSRWQEGNVFSCSVMHEALHNRFTQKSLSLSP
light: DIQMTQSPSSLSASVGDRVTITCKASRNIERNLAWYQQKPGQAPELLIYSASRKESGVPDRFSGSRYGTDFTLTISSLQPEDLATYYCQQYYSPPLTFGGGTKVEIKRTVAAPSVFIFPPSDEQLKSGTASVVCLLNNFYPREAKVQWKVDNALQSGNSQESVTEQDSKDSTYSLSSTLTLSKADYEKHKVYACEVTHQGLSSPVTKSFNRGEC
notes: also called homomeric antibody against FX
  binding result: no binding

Reference: patent publication US20150344570A1 (published 2015)
